Experimental data: patent publication KR20150077749A (dated 2015)

Columns and labels:
[1] = target: T1, GRS expressed natively in human cells (HeLa cell lysate) (human, UniProt P41250 55-739, limits assumed); assay: western blot
T1 construct: Target of the western blot; also called human 세포에서 원래 발현된 GRS
T1 sequence (looked up): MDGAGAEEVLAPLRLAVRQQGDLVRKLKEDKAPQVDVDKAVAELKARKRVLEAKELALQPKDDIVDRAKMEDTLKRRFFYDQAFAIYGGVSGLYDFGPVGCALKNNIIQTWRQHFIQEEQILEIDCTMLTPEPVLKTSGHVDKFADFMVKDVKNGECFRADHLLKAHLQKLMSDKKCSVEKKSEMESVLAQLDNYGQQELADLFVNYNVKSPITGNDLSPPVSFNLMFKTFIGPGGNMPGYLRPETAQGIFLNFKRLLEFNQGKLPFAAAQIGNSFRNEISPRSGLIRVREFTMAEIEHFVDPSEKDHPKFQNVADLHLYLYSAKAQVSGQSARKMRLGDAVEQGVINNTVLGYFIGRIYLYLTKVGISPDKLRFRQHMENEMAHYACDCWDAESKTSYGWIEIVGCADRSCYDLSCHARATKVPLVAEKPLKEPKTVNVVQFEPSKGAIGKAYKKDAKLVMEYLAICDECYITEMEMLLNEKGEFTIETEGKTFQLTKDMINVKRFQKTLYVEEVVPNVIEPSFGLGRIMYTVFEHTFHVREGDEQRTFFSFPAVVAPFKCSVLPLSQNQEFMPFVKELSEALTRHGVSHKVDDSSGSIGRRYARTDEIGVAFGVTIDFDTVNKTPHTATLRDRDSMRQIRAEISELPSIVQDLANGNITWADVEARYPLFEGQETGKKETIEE

[2] = target: T2, AIMP1 (Aminoacyl-tRNA-synthetase-interacting multifunctional protein 1), purified recombinant antigen (UniProt Q12904 1-312, limits assumed); assay: Luminex multiplex bead assay, antigen coupled to beads, anti-HA-biotin / SA-PE detection
T2 construct: also called AIMP1(p43); p43
T2 sequence (looked up): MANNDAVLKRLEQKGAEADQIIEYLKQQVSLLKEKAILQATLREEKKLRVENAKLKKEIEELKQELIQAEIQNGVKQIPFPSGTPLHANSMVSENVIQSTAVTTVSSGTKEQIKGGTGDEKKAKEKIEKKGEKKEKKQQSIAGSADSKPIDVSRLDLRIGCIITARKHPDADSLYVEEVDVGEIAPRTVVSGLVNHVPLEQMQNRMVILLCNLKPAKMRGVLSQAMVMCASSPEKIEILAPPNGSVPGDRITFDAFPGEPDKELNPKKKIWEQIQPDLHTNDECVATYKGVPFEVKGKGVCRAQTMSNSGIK

[3] = target: T3, YRS (Tyrosyl-tRNA synthetase), purified recombinant antigen (UniProt P54577 1-528, limits assumed); assay: as above
T3 construct: also called 타이로실-tRNA 합성효소
T3 sequence (looked up): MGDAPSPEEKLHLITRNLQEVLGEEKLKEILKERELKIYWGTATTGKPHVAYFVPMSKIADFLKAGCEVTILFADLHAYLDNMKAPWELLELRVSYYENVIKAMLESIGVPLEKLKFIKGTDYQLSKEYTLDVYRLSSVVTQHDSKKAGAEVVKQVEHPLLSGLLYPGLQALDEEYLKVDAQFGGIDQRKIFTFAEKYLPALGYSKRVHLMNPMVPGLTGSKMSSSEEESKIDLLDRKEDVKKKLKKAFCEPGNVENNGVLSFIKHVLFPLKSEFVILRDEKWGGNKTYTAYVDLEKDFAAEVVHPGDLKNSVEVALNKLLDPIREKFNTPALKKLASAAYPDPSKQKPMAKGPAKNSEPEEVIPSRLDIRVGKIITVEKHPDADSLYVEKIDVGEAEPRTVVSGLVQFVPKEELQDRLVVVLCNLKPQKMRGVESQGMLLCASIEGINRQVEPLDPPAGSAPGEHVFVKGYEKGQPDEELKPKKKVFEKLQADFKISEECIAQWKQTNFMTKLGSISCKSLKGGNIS

[4] = target: T4, NRS (Asparaginyl-tRNA synthetase), purified recombinant antigen (UniProt O43776 1-548, limits assumed); assay: as above
T4 construct: also called 아스파라기닐딜-tRNA 합성효소
T4 sequence (looked up): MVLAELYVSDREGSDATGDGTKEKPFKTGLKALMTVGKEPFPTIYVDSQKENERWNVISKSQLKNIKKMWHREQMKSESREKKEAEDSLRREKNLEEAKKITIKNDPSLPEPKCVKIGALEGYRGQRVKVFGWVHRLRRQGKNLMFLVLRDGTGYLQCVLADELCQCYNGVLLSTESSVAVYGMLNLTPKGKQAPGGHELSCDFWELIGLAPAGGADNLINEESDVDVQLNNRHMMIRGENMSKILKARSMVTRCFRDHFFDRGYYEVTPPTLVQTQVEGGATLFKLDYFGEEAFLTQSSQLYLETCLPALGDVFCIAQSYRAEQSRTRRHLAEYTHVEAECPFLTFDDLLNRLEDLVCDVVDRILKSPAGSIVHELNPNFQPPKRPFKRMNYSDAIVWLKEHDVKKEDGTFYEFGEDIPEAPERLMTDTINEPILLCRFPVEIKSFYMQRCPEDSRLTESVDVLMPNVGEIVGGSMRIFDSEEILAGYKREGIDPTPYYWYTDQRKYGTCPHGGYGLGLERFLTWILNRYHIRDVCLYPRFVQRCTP

[5] = target: T5, HRS (Histidyl-tRNA synthetase), purified recombinant antigen (UniProt P12081 1-509, limits assumed); assay: as above
T5 construct: also called 히스티딜-tRNA 합성효소
T5 sequence (looked up): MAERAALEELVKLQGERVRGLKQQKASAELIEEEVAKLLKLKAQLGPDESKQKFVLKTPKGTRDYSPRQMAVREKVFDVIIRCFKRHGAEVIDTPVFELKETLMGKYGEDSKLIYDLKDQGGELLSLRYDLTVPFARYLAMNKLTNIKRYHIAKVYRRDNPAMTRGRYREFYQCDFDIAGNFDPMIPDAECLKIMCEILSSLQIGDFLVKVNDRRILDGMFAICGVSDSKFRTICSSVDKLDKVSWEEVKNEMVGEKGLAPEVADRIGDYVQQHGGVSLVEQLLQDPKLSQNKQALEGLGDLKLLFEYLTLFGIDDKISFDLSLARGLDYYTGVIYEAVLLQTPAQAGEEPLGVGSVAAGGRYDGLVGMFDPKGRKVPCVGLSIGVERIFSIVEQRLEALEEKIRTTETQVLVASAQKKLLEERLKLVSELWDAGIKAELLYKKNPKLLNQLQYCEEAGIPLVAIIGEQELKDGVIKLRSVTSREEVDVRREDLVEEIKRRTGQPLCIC

[6] = target: T6, SRS (Seryl-tRNA synthetase), purified recombinant antigen (UniProt P49591 1-514, limits assumed); assay: as above
T6 construct: also called 세릴-tRNA 합성효소

[7] = target: T7, KRS (Lysyl-tRNA synthetase), purified recombinant antigen (UniProt Q15046 1-597, limits assumed); assay: as above
T7 construct: also called 리실-tRNA 합성효소

[8] = target: T8, WRS (Tryptophanyl-tRNA synthetase), purified recombinant antigen (UniProt P23381 1-471, limits assumed); assay: as above
T8 construct: also called 트립토파닐-tRNA 합성효소
T8 sequence (looked up): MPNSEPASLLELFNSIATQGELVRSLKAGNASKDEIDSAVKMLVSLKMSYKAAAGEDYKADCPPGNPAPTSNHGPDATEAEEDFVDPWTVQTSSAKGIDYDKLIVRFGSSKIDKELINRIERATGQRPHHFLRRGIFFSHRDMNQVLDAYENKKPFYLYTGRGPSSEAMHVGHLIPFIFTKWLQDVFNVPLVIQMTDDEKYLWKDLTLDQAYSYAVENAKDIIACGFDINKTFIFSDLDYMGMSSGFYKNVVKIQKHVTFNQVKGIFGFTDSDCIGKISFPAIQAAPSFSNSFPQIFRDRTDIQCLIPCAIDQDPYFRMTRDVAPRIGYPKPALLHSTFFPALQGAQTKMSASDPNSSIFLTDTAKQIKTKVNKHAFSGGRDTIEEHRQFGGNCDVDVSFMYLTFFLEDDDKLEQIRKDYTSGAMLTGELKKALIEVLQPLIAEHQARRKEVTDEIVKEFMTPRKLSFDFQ

T7 sequence (Q15046 whole entry): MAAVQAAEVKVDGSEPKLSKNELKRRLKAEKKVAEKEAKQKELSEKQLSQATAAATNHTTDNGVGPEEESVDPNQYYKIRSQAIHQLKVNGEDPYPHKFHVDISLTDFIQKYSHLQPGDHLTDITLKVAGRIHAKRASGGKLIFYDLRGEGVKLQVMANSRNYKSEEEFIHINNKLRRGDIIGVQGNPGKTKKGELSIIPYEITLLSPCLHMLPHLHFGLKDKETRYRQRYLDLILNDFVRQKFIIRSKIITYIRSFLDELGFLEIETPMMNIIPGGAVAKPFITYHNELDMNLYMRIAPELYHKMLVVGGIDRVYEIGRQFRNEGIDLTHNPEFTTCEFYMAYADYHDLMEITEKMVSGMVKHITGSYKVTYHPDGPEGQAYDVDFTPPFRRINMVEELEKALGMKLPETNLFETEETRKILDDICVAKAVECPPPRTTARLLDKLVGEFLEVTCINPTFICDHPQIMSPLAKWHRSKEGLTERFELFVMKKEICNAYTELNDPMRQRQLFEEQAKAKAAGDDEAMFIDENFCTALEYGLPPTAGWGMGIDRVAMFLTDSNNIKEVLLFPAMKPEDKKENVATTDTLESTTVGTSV
T6 sequence (P49591 whole entry): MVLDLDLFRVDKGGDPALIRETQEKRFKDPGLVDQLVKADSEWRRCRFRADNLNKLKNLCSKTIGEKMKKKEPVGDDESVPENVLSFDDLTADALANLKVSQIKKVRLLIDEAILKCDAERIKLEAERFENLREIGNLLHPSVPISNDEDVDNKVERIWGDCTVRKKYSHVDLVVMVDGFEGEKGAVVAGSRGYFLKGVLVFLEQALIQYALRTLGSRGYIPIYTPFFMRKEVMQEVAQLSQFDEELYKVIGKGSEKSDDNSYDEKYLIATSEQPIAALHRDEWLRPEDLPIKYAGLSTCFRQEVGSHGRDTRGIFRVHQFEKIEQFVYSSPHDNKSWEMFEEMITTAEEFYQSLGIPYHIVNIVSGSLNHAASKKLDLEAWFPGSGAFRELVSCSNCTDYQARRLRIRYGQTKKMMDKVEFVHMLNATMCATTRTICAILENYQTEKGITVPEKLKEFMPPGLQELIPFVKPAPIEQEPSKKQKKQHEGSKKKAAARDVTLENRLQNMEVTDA

Row | Binder | binding result [1] | binding result [2] | binding result [3] | binding result [4] | binding result [5] | binding result [6] | binding result [7] | binding result [8]
1 | anti-GRS scFv, SEQ ID NO 41 (antibody iii) (scFv, One of the three scFvs selected by phage display, expressed from pComb3X in the E. coli periplasm; His and HA tags were used for purification and detection; also called 본 발명의 항체; 항 GRS scFv 항체) scFv: EVQLLESGGGLVQPGGSLRLSCAASGFTFSNYDMSWVRQAPGKGLEWVSWIYSNGSSTYYADSVKGRFTISRDNSKNTLYLQMNSLRAEDTAVYYCARITCMFDYWGQGTLVTVSSGGGGSGGGGSGGGGSQSVLTQPPSASGTPGQRVTISCSGSSSNIGSNYVTWYQQLPGTAPKLLIYADSHRPSGVPDRFSGSKSGTSASLAISGLRSEDEADYYCGSWDYSLNGYVFGGGTKLTVL | binds | no binding | no binding | no binding | no binding | no binding | no binding | no binding
2 | anti-GRS scFv, SEQ ID NO 13 (antibody i) (scFv, One of the three scFvs selected by phage display (human VH3-23/VL1g framework), expressed from pComb3X in the E. coli periplasm; It was purified on Ni-NTA and detected with anti-HA, so it carries His and HA tags; Every result written here is told alike for all three scFvs; also called 본 발명의 항체; 항 GRS scFv 항체) scFv: EVQLLESGGGLVQPGGSLRLSCAASGFTFSDYDMSWVRQAPGKGLEWVSAISPDDGSKYYADSVKGRFTISRDNSKNTLYLQMNSLRAEDTAVYYCARTTWLFDYWGQGTLVTVSSGGGGSGGGGSGGGGSQSVLTQPPSASGTPGQRVTISCTGSSSNIGNNYVNWYQQLPGTAPKLLIYADSHRPSGVPDRFSGSKSGTSASLAISGLRSEDEADYYCGAWDSSLSGYVFGGGTKLTVL | – | no binding | no binding | no binding | no binding | no binding | no binding | no binding
3 | anti-GRS scFv, SEQ ID NO 27 (antibody ii) (scFv, One of the three scFvs selected by phage display, expressed from pComb3X in the E. coli periplasm; His and HA tags were used for purification and detection; also called 본 발명의 항체; 항 GRS scFv 항체) scFv: EVQLLESGGGLVQPGGSLRLSCAASGFTFSGYDMSWVRQAPGKGLEWVSAIYSDSGSTYYADSVKGRFTISRDNSKNTLYLQMNSLRAEDTAVYYCARNTALFDYWGQGTLVTVSSGGGGSGGGGSGGGGSQSVLTQPPSASGTPGQRVTISCSGSSSNIGSNYVTWYQQLPGTAPKLLIYANNHRPSGVPDRFSGSKSGTSASLAISGLRSEDEADYYCGAWDASLSGYVFGGGTKLTVL | binds | no binding | no binding | no binding | no binding | no binding | no binding | no binding
